Data published in paper PMC5167779.

Experiments:
[1] = molecular target: XfYgiT, antitoxin of the toxin-antitoxin system of Xylella fastidiosa subsp. pauca strain 9a5c (Xylella fastidiosa subsp. pauca strain 9a5c); assay: SEC
[2] = molecular target: XfYgiT, antitoxin of the toxin-antitoxin system of Xylella fastidiosa subsp. pauca strain 9a5c (Xylella fastidiosa subsp. pauca strain 9a5c); assay: ITC
[3] = molecular target: XfYgiT, antitoxin of the toxin-antitoxin system of Xylella fastidiosa subsp. pauca strain 9a5c (Xylella fastidiosa subsp. pauca strain 9a5c); assay: AUC
[4] = molecular target: XfYgiT, antitoxin of the toxin-antitoxin system of Xylella fastidiosa subsp. pauca strain 9a5c (Xylella fastidiosa subsp. pauca strain 9a5c); assay: SEC; […], sodium phosphate buffer ([…]

| Substance | stoichiometry N (mol/mol (printed as 1:1)) [1] | dH [2] [kcal/mol] | stoichiometry N (mol/mol (printed as 1:1)) [2] | stoichiometry N (mol/mol (printed as 2:2)) [3] | stoichiometry N [4] | stoichiometry N [3] |
| --- | --- | --- | --- | --- | --- | --- |
| XfMqsR, toxin of the toxin-antitoxin system of Xylella fastidiosa subsp. pauca strain 9a5c (natural protein) | 1 | -8.61 | 1 | 1 |  |  |
| XfYgiT, antitoxin of the toxin-antitoxin system of Xylella fastidiosa subsp. pauca strain 9a5c (natural protein) |  |  |  |  | 2 | 2 |
